Measurements from PMC9852558 (The Journal of Biological Chemistry, 2022).

Experiments:
Assay in all cases: SPR
[1] = molecular target: FGFR1β (IIIc)/Fc (Homo sapiens, UniProt P11362, strain, biotinylated)
[2] = molecular target: FGFR2 (IIIb) (Homo sapiens (assumed), UniProt P21802-3)
[3] = molecular target: FGFR3 (IIIb) (Homo sapiens (assumed), UniProt P22607-2)
[4] = molecular target: FGFR4 (Homo sapiens (assumed), UniProt P22455)
[5] = molecular target: FGFR1 (IIIb) (Homo sapiens, FGFR1 splice form IIIb, UniProt P11362, strain)
Sequence of FGFR1 (IIIb) (P11362 whole entry, looked up, change not shown, canonical isoform): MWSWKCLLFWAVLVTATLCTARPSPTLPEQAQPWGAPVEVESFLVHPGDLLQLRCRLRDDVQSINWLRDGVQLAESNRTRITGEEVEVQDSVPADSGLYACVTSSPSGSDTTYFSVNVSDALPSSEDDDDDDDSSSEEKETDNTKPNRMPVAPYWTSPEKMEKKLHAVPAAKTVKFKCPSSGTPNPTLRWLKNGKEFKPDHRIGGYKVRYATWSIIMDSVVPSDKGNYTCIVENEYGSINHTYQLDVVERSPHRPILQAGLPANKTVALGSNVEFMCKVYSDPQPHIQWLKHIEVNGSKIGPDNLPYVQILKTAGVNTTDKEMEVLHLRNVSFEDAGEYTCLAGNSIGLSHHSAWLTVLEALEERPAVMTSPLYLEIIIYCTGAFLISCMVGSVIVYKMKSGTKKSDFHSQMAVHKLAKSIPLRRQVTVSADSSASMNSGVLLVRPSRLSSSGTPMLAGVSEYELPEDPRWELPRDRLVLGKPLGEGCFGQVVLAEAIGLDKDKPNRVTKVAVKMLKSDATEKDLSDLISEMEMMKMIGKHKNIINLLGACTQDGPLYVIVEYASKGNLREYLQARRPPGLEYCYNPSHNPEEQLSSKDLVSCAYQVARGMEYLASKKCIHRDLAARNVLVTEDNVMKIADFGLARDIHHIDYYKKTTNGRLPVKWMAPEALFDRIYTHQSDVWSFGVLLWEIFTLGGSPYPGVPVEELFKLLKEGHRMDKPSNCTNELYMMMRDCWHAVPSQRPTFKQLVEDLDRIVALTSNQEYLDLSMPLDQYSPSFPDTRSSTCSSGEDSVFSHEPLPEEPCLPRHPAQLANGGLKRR

Sequence of FGFR4 (P22455 22-802): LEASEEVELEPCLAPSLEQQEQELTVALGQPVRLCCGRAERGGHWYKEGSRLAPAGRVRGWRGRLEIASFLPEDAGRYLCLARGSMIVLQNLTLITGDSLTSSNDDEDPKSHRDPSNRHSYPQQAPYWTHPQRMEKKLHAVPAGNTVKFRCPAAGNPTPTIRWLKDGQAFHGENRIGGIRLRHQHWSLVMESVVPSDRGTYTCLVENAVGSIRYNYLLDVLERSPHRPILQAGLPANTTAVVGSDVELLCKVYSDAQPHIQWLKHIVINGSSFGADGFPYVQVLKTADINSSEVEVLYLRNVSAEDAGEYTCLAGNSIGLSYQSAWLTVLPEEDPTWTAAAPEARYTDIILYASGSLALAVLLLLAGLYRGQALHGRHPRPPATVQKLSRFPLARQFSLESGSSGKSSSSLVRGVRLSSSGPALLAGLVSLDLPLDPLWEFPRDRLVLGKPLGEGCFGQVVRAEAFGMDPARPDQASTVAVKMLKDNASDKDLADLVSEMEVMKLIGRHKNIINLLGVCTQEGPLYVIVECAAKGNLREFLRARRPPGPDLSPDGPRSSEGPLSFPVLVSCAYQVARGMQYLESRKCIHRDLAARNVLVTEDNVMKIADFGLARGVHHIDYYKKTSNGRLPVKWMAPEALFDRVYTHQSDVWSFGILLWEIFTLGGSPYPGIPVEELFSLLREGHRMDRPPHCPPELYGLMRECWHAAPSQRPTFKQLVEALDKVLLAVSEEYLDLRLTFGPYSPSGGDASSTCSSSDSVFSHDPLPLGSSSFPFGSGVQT

| Binder | Kd [1] [nM] | koff [1] [s⁻¹] | kon [1] [M⁻¹ s⁻¹] | binding result [2] | binding result [3] | Kd [4] [nM] | koff [4] [s⁻¹] | kon [4] [M⁻¹ s⁻¹] | Kd [5] [nM] | koff [5] [s⁻¹] | kon [5] [M⁻¹ s⁻¹] |
| --- | --- | --- | --- | --- | --- | --- | --- | --- | --- | --- | --- |
| clone VM35 (VHH) VHH: QVQLVESGGGLVQAGGSLRLSCAVPGSIFRFNTMGWYRQPPGKQRELVAQMSRGGITKYGDSVKGRFTITRDNAKNTVHLQMNSLKPEDTAVYYCAGSYYSGSYYYPSPQGFSVWGQGTQVTVSP | 1.02 | 0.00114 | 1.11e+06 | – | – | – | – | – | – | – | – |
| clone VM34 (VHH) VHH: QLQLVESGGGSVQAGGSLRLSCAASRSLSRFNVWTWYRQAPVKQRELVASITKSGDTNYAESVKGRFIISRDDDKNTVYLQMNNLKSEDTGIYYCAGSYYSGSYLYPSPGGFSVWGQGTQVTVSS | 1.74 | 0.00142 | 819000 | no binding | no binding | 22.2 | 0.0527 | 2.37e+06 | 92.8 | 0.0254 | 274000 |
